{"source": "paper PMC6204036", "about": "“Myostatin and activin blockade by engineered follistatin results in hypertrophy and improves dystrophic pathology in mdx mouse more than myostatin blockade alone” (Skeletal Muscle, 2018)", "binders": {"B1": {"name": "activin A (ligand, UniProt P08476 311-426, looked up)", "chain": "GLECDGKVNICCKKQFFVSFKDIGWNDWIIAPSGYHANYCEGECPSHIAGTSGSSLSFHSTVINHYRMRGHSPFANLKSCCVPTKLRPMSMLYYDDGQNIIKKDIQNMIVEECGCS", "notes": "activin A (inhibin beta A chain), the ligand used in SPR"}}, "target": "T1, FS-EEE-mFc (human, UniProt P19883 30-344, K76 mutagenized to glutamic acid | K81 mutagenized to glutamic acid | K82 …)", "T1 construct": "follistatin FS315, human, with K76, K81 and K82 changed to glutamic acid; FS315 cDNA (Clontech) cloned in frame to murine IgG1 Fc cDNA; also called engineered follistatin; FST-EEE-mFc", "T1 sequence (P19883 other isoform, or with tags, fused parts or gaps with the stated changes)": "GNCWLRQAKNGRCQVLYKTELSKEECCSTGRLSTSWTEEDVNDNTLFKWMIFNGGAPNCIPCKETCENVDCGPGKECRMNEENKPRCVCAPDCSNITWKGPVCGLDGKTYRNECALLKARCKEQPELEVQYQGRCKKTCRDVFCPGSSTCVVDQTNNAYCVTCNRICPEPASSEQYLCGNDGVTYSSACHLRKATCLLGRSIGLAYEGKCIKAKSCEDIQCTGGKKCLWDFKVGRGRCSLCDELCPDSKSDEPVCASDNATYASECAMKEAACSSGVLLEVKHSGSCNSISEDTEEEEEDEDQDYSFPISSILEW", "assay": "SPR; surface plasmon resonance method as in ref. 48; which partner was immobilised and the conditions are not told", "settings": "both partners purified"}
{"binder": "B1", "values": [{"measurement": "Kd", "result": 6.1, "unit": "pM"}]}
